This is an account of results in patent US6207389A, “Methods of controlling T lymphocyte mediated immune responses” (HRC Research and Development Limited Partnership, priority 1995, dated 2001).

For test [1], the system named is C57/B6 and SJL mice. In words: Serum antibodies to BSA and p69 by fluoroimmunoassay, control mice (Example 11). Format: in vivo, mouse. The conditions noted are these: 50 μg sc in complete Freund's adjuvant. On the procedure: (§1) Male non-obese diabetic mice (NOD, 6-7 weeks old) were immunized with 50 μg BSA, ABBOS-short peptide ([…]), recombinant truncated p69 or p69 T cell epitope peptide `Tep69` ([…]) (10). Recombinant truncated p69 was prepared by expression of a portion of the cDNA of IS4. The cDNA was cut a few nucleotides downstream of the 3' terminal of exon 3 and was subcloned into the PET™ expression system according to the manufacturer's recommendations (Novagen Inc., Madison, Wis.).
(§2) Antigens were injected subcutaneously in complete Freunds' adjuvant, and local lymph nodes and blood samples were collected 10 days later. […] Six hours before harvesting, 1 μCi ^3 H-thymidine (6.7 Ci/mmol) was added to the wells, and isotope incorporation was analysed by liquid scintillation counting. Values are expressed as mean counts per minute ± standard deviation (mean cpm ± SD).
(§3) Serum antibodies to BSA and p69 were measured by particle concentration fluoroimmunoassay, as described (11). […] Bound fluorescence was read by an automated ScreenMachine™ instrument (IDEXX, Portland, Me.). Data are expressed in kilofluorescence units relative to a standard mouse serum analyzed in parallel within each assay plate.
(§4) Young male NOD mice (H2^G7, IE^-/-) received a single immunization with truncated p69 (as encoded by IS4 cDNA) in complete adjuvant, and antibody and T cell proliferative responses were measured 8-10 days later. […]

Test [2] relates to C57/B6 and SJL mice lymph node cells. In words: Immunization and T cell proliferation assay, non-diabetes prone control mice (Example 11). The conditions noted are these: 50 μg sc in complete Freund's adjuvant. Format: in vivo, mouse. On the procedure: (§5) Recombinant truncated p69 was prepared by expression of a portion of the cDNA of IS4. The cDNA was cut a few nucleotides downstream of the 3' terminal of exon 3 and was subcloned into the PET™ expression system according to the manufacturer's recommendations (Novagen Inc., Madison, Wis.). The truncated protein contains 100 amino acids and is essentially identical with the murine molecule.
(§6) Antigens were injected subcutaneously in complete Freunds' adjuvant, and local lymph nodes and blood samples were collected 10 days later. Triplicate cultures of 2×10^5 lymph node cells were incubated for 5 days in serum-free HGM-af Medium™ (Promo Cell, Heidelberg, Germany) in the presence of 1 μg of protein or synthetic peptide as recall antigen. Six hours before harvesting, 1 μCi ^3 H-thymidine (6.7 Ci/mmol) was added to the wells, and isotope incorporation was analysed by liquid scintillation counting. Values are expressed as mean counts per minute ± standard deviation (mean cpm ± SD).
(§7) Young male NOD mice (H2^G7, IE^-/-) received a single immunization with truncated p69 (as encoded by IS4 cDNA) in complete adjuvant, and antibody and T cell proliferative responses were measured 8-10 days later. MHC disparate C57/B6 (H2^b, IE^-/-) and SJL (H2^s, IE^-/-) mice served as non-diabetes prone controls (FIG. 31).

For test [3], the system named is PBMC from healthy subjects. In words: T cell proliferation assay with BSA and rec-p69, healthy subjects (Example 3). Format: cell-based, human. The conditions noted are these: with or without IL2. On the procedure: (§8) Cultures containing 5×10^4 cells were incubated for 7 days at 37° C. in serum-free HL-1 medium (Ventrex, Portland, Me.) containing 1 μg antigen per well for test samples.
(§9) Control cultures were treated with 1 μg human, chick or horse albumin or an equivalent volume of control recombinant antigen prepared from lysates of E. coli carrying wild type plasmid.
(§10) After an overnight pulse of 1 μci ^3 H thymidine, cultures were harvested and submitted to liquid scintillation counting. Proliferation was expressed as cpm ^3 HTdR×10^-3.
(§11) A parallel set of cell cultures was incubated with the same test antigens or control agents in the presence of 10 U human IL2.

For test [4], the system named is PBMC from children with recent onset diabetes. In words: T cell proliferation assay with BSA and rec-p69, patients (Example 3). Format: cell-based, human. The conditions noted are these: 1 μg antigen. The procedure: as §8, §9, §10, §11
Test [5] deals with NOD mice lymph node cells. In words: Immunization and T cell proliferation assay, NOD mice (Example 11). Format: in vivo, mouse. The conditions noted are these: 50 μg sc in complete Freund's adjuvant, recall with 1 μg antigen in vitro. The procedure: as §5, §6, §7
For test [6], the system named is NOD mice. In words: Serum antibodies to BSA and p69 by fluoroimmunoassay, NOD mice (Example 11). Format: in vivo, mouse. The conditions noted are these: 50 μg sc in complete Freund's adjuvant. On the procedure: as §1, §2, §3, §4
Where [7] appears, read: listed as recombinant truncated p69.

B1: ovalbumin (protein, UniProt P01012 2-386, looked up)
Ovalbumin: GSIGAASMEFCFDVFKELKVHHANENIFYCPIAIMSALAMVYLGAKDSTRTQINKVVRFDKLPGFGDSIEAQCGTSVNVHSSLRDILNQITKPNDVYSFSLASRLYAEERYPILPEYLQCVKELYRGGLEPINFQTAADQARELINSWVESQTNGIIRNVLQPSSVDSQTAMVLVNAIVFKGLWEKAFKDEDTQAMPFRVTEQESKPVQMMYQIGLFRVASMASEKMKILELPFASGTMSMLVLLPDEVSGLEQLESIINFEKLTEWTSSNVMEERKIKVYLPRMKMEEKYNLTSVLMAMGITDVFSSSANLSGISSAESLKISQAVHAAHAEINEAGREVVGSAEAGVDAASVSEEFRADHPFLFCIKHIATNAVLFFGRCVSP
notes: bona fide non-self control antigen
Turning to B1, in test [1], the “antibody response after immunisation (anti-p69 or anti-BSA)” value is on record as “comparable responses”. Besides, the “T cell proliferative response after immunisation” value in test [2] was “comparable responses”.

B2: rec-p69: recombinant human islet cell antigen p69 expressed in E. coli, SEQ ID No. 2 (protein)
chain: MSGHKCSYPWDLQDRYAQDKSVVNKMQQKYWETKQAFIKATGKKEDEHVVASDADLDAKLELFHSIQRTCLDLSKAIVLYQKGICFLSQEENELGKFLRSQGFQDKTRAGKMMQATGKALCFSSQQRLALRNPLCRFHQEVETFRHRAISDTWLTVNRMEQCRTEYRGALLWMKDVSQELDPDLYKQMEKFRKVQTQVRLAKKNFDKLKMDVCQKVDLLGASRCNLLSHMLATYQTTLLHFWEKTSHTMAAIHESFKGYQPYEFTTLKSLQDPMKKLVEKEEKKKINQQESTDAAVQEPSQLISLEEENQRKESSSFKTEDGKSILSALDKGSTHTACSGPIDELLDMKSEEGACLGPVAGTPEPEGADKDDLLLLSEIFNASSLEEGEFSKEWAAVFGDGQVKEPVPTMALGEPDPKAQTGSGFLPSQLLDQNMKDLQASLQEPAKAASDLTAWFSLFADLDPLSNPDAVGKTDKEHELLNA
With B2, the “proliferative response of samples from healthy subjects” value in test [3] is “no significant proliferative response”. In addition, the “proliferative response of patient samples” value in test [4] (absence of IL2) was “at best a small proliferative response”; in test [4] (absence of IL2, listed as recombinant human p69 protein) it was “little or no proliferative response”; in test [4] (presence of 10 U IL2, listed as recombinant human p69 protein), “full proliferative response”.

B3: truncated p69: 100 amino acid truncated p69 encoded by clone IS4 cDNA, contains Tep69 region, SEQ ID No. 41 (protein)
chain: MSGHKCSYPWDLQDRYAQDKSVVNKMQQKYWETKQAFIKATGKKEDEHVVASDADLDAKLELFHSIQRTCLDLSKAIVLYQKRICSF
Consider B3, for which the “T cell proliferative response after immunisation” value in test [5] is “Vigorous p69-specific antibody and T cell responses”; in test [5] (setting [7]), “vigorous B- and T cell responses”; in test [2], “not in C57/B6 or SJL strains”; in test [2] (setting [7]), “essentially no responses”. Besides, the “antibody response after immunisation (anti-p69 or anti-BSA)” value is “Vigorous p69-specific antibody and T cell responses” in test [6]; “vigorous B- and T cell responses” in test [6] (setting [7]); “not in C57/B6 or SJL strains” in test [1].
